Test results as given in patent US20210230266A1 (SINGAPORE HEALTH SERVICES PTE, published 2021).

Columns and labels:
[1] = molecular target: T1, Human IL-11 (human, UniProt P20809 22-199); assay: ELISA on coated recombinant human IL-11 (100 ng/well), scFv-Fc
T1 construct: Recombinant human IL-11 (GenScript Cat. No. Z03108-1) or IL-11 secreted by human cells; the mature form is said to have 178 residues; also called recombinant human IL-11; endogenously produced IL-11
T1 sequence: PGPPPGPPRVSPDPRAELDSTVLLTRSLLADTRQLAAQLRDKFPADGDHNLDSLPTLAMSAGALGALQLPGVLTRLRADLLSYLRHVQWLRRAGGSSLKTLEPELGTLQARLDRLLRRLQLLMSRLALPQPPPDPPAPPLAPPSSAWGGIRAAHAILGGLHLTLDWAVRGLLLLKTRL
Description: The light chain shuffled anti-IL-11 antibodies were analysed to determine the EC50 for binding to human IL-11 by ELISA according to standard methods. Briefly, wells of microtiter plates were coated with recombinant human IL-11 (100 ng/well), scFv-Fc comprising the VH and VL domains of the clones were added in a dilution series and antibody binding was detected using a polyclonal antibody detection system.

[2] = molecular target: T1, Human IL-11; assay: cell-based or functional assay
[3] = molecular target: T1, Human IL-11; assay: ELISA
Description: (§1) The soluble scFv were produced by recombinant expression in E. coli, and analysed for their ability to bind to human IL-11 and murine IL-11 by ELISA. Briefly, the respective antigen was coated to wells of an ELISA plate, the cell culture supernatant containing the respective scFv was added at a 1:2 dilution, and binding was detected.

[4] = molecular target: T2, Mouse IL-11 (mouse, UniProt P47873 22-199, limits assumed); assay: ELISA
T2 construct: also called murine IL-11; recombinant murine IL-11
T2 sequence (looked up): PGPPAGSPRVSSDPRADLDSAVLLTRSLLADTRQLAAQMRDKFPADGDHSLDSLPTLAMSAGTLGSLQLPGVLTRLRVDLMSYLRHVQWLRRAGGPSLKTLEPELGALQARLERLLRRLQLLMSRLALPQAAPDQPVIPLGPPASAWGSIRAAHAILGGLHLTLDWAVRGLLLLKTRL
Description: as §1

B1: YU100-A10 (antibody)
chain: EVQLVESGGGVVQPGRSLRLSCAASGFTFSSYGMHWVRQAPGKGLEWVAVISYDGSNKYYADSVKGRFTISRDNSKNTLYLQMNSLRAEDTAVYYCAKIGATDPLDYWGQGTLVTVSSGSASAPKLEEGEFSEARVLPVLTQPASVSGSPGQSITISCTGTSSDVGAYNYVSWYQQHPGKAPELMIYDVSNRPSGVSNRFSGSKSGNTASLTISGLQPEDEADYYCSSFTTSIAWVFGGGTKLTVL
How did the EC50 [1] turn out when B1 was run?
Its EC50 is 0.023 µg/mL.

And the “MMP2 production, Experiment 1 (human atrial fibroblasts + TGFB1)” value [2]?
Its value is 52.1 ng/mL.

What about the “MMP2 production, Experiment 2 (human atrial fibroblasts + TGFB1)” value [2] of the same binder?
Its value is 50.1 ng/mL.

And the “hIL11 - average signal” value [3]?
The value was 0.443.

And the “mIL11 - average signal” value [4]?
Its value is 0.54.

B2: YU112-H02 (antibody)
chain: QVQLVESGGGVVQPGRSLRLSCAASGFTFSSYGMHWVRQAPGKGLEWVAVISYDGSNKYYADSVKGRFTISRDNSKNTLYLQMNSLRAEDTAVYYCAKLSGPNGVDYWGQGTLVTVSSGSASAPKLEEGEFSEARVQPVLTQPRSVSGSPGQSVTISCTGTSSDVGGYNYVSWYQQHPGKAPKVMIYDVSKRPSGVPDRFSGSKSGNTASLTISGLQAEDEADYYCCSYAGSYTWVFGGGTKLTVL
Which EC50 [1] does the source give for B2 here?
The EC50 was 0.02 µg/mL.

And the “MMP2 production, Experiment 1 (human atrial fibroblasts + TGFB1)” value [2]?
Its value is 65.3 ng/mL.

What about the “MMP2 production, Experiment 2 (human atrial fibroblasts + TGFB1)” value [2] of the same binder?
The value was 58 ng/mL.

And the “hIL11 - average signal” value [3]?
The value was 0.606.

And the “mIL11 - average signal” value [4]?
Its value is 0.785.

B3: YU112-C03 (antibody)
chain: QVQLVESGGGVVQPGRSLRLSCAASGFTFSSYGMHWVRQAPGKGLEWVAVISYDGSNKYYADSVKGRFTISRDNSKNTLYLQMNSLRAEDTAVYYCAKGGKSYYGFDYWGQGTLVTVSSGSASAPKLEEGEFSEARVDSVMTQSPSSLSASVGDRVTITCRASQAINSYLNWYQQKPGKAPKLLIYAASSLQSGVPSRFSGSGSGTDFTLTISGLQPEDFATYYCQQSYSTPSWTFGQGTKVEIK
What does the source list for B3?
EC50 [1]: 0.017 µg/mL; MMP2 production, Experiment 1 (human atrial fibroblasts + TGFB1) [2]: 57.6 ng/mL; MMP2 production, Experiment 2 (human atrial fibroblasts + TGFB1) [2]: 53.3 ng/mL; hIL11 - average signal [3]: 0.566; mIL11 - average signal [4]: 0.445

B4: YU112-F05 (antibody)
chain: EVQLVQSGGGVVQPGRSLRLSCAASGFTFGSYGMHWVRQAPGKGLEWVAVISYDGSNKYYADSVKGRFTISRDNSKNTLYLQMNSLRAEDTAVYYCAKIGATDPLDYWGQGTLVTVSSGSASAPKLEEGEFSEARVQSALTQPRSVSGSPGQSVTISCTGTSSDVGGYNYVSWYQQHPGKAPKLIIYDVNNRPSGVSNRFSASKSGNTASLTISGLQAEDEADYYCNSYTSGSTWVFGGGTKLTVL
Which results are given for B4?
EC50 [1]: 0.04 µg/mL; MMP2 production, Experiment 1 (human atrial fibroblasts + TGFB1) [2]: 53.9 ng/mL; MMP2 production, Experiment 2 (human atrial fibroblasts + TGFB1) [2]: 48.5 ng/mL; hIL11 - average signal [3]: 0.863; mIL11 - average signal [4]: 0.601

B5: YU112-A07 (antibody)
chain: QVQLVESGGGVVQPGRSLRLSCAASGFTFSSYGMHWVRQAPGKGLEWVAVISYDGSNKYYTDSVKGRFTISRDNSKNTLYLQMNSLRAEDTAVYYCAKIGATDPLDYWGQGTLVTVSSGSASAPKLEEGEFSEARVQSALTQPRSVSGSPGQSVTISCTGTISDVGGYNYVSWYQQHPGKAPKLMIYDVTKRPSGVPDRFSGSKSGNTASLTISGLQAEDEAGYYCSSYAGSYTWVFGGGTELTVL
B5 was tested. Which EC50 [1] did it give?
Its EC50 is 0.025 µg/mL.

What about the “MMP2 production, Experiment 1 (human atrial fibroblasts + TGFB1)” value [2] of the same binder?
The value was 50.7 ng/mL.

And the “MMP2 production, Experiment 2 (human atrial fibroblasts + TGFB1)” value [2]?
The value was 45 ng/mL.

What about the “hIL11 - average signal” value [3] of the same binder?
The value was 0.438.

And the “mIL11 - average signal” value [4]?
The value was 0.612.

B6: YU112-G06 (antibody)
chain: QVQLQESGGGVVQPGRSLRLSCAASGFTFSSYGMHWVRQAPGKGLEWVAVISYDGSNKYYADSVKGRFTISRDNSKNTLYLQMNSLRAEDTAVYYCAKIGATDPLDYWGQGTLVTVSSGSASAPKLEEGEFSEARVQSALTQPRSVSGSPGQSVTISCTGTISDVGGYNYVSWYQQHPGKAPKLMIYDVTKRRSGVPDRFSGSKSGNTASLTISGLQAEDEAGYYCSSYAGGYTWVFGGGTELTVL
Which results are given for B6?
EC50 [1]: 0.017 µg/mL; MMP2 production, Experiment 1 (human atrial fibroblasts + TGFB1) [2]: 55 ng/mL; MMP2 production, Experiment 2 (human atrial fibroblasts + TGFB1) [2]: 47.8 ng/mL; hIL11 - average signal [3]: 0.664; mIL11 - average signal [4]: 0.762

B7: YU112-D08 (antibody)
chain: QVQLVESGGGVVQPGRSLRLSCAASGFTFSSYGMHWVRQAPGKGLEWVAVISYDGSNKYYADSVEGRFTISRDNSKNTLYLQMNSLRAEDTAVYYCAKIGATDPLDYWGQGTLVTVSSGSASAPKLEEGEFSEARVQSALTQPRSVSGSPGQSVTISCTGTISDVGGYNYVSWYQQHPGKAPKLMIYDVTKRPSGVPDRFSGSKSGNTASLTISGLQAEDEAGYYCSSYAGSYTWVFGGGTELTVL
Which EC50 [1] does the source give for B7 here?
Its EC50 is 0.018 µg/mL.

What about the “MMP2 production, Experiment 1 (human atrial fibroblasts + TGFB1)” value [2] of the same binder?
The value was 50.3 ng/mL.

And the “MMP2 production, Experiment 2 (human atrial fibroblasts + TGFB1)” value [2]?
The value was 42.5 ng/mL.

What about the “hIL11 - average signal” value [3] of the same binder?
Its value is 0.418.

What about the “mIL11 - average signal” value [4] of the same binder?
The value was 0.723.

B8: YU112-B06 (antibody)
chain: QVQLVESGGGVVQPGRSLRLSCAASGFTFSSYGMHWVRQAPGKGLEWVAVISYDGSNKYYADSVKGRFTISRDNSKNTLYLQMNSLRAEDTAVYYCAKIGATDPLDYWGQGTLVTVSSGSASAPKLEEGEFSEARVQSALTQPASVSGSPGQSITISCTGTSSDVGGYNYVSWYQQHPGKAPKLMIYDVSNRPSGVSNRFSGSKSGNTASLTIFGLQAEDEADYYCSSYTSSSSWVFGGGTKLTVL
What does the source list for B8?
EC50 [1]: 0.02 µg/mL; MMP2 production, Experiment 1 (human atrial fibroblasts + TGFB1) [2]: 49.7 ng/mL; MMP2 production, Experiment 2 (human atrial fibroblasts + TGFB1) [2]: 43.9 ng/mL; hIL11 - average signal [3]: 0.756; mIL11 - average signal [4]: 0.622

B9: YU112-C05 (antibody)
chain: EVQLVESGGGVVQPGRSLRLSCAASGFTFSSYAMHWVRQAPGKGLEWVAVISYDGSNKYYADSVKGRFTISRDNSKNTLYLQMNSLRAEDTAVYYCARIMGYDYGDYDVVDYWGQGTLVTVSSGSASAPKLEEGEFSEARVQSALTQPRSVSGSPGQSVTISCTGTISDVGGYNYVSWYQQHPGKAPKLMIYDVTKRPSGVPDRFSGSKSGNTASLTISGLQAEDEAGYYCSSYAGSYTWVFGGGTELTVL
B9 was tested. Which EC50 [1] did it give?
The EC50 was 0.012 µg/mL.

What about the “MMP2 production, Experiment 1 (human atrial fibroblasts + TGFB1)” value [2] of the same binder?
The value was 55.2 ng/mL.

And the “MMP2 production, Experiment 2 (human atrial fibroblasts + TGFB1)” value [2]?
The value was 50.1 ng/mL.

What about the “hIL11 - average signal” value [3] of the same binder?
Its value is 0.458.

And the “mIL11 - average signal” value [4]?
Its value is 0.685.

B10: YU112-H01 (antibody)
chain: QVQLVESGGGVVQPGRSLRLSCAASGFTFGSYGMHWVRQAPGKGLEWVAVISYDGSNKYYADSVKGRFTISRDNSKNTLYLQMNSLRAEDTAVYYCAKGSYYFDYWGQGTLVTVSSGSASAPKLEEGEFSEARVETTLTQSPGTLSLSPGERATLSCRASQSVSSSYLAWYQQKPGQAPRLLIYGASSRATGIPDRFSGSGSGTDFTLTISSLQPDDFATYYCQQSYSTPTWTFGQGTKVEIK
For B10, which EC50 [1] is on record?
The EC50 was 0.02 µg/mL.

And the “MMP2 production, Experiment 1 (human atrial fibroblasts + TGFB1)” value [2]?
The value was 51.9 ng/mL.

What about the “MMP2 production, Experiment 2 (human atrial fibroblasts + TGFB1)” value [2] of the same binder?
Its value is 47.7 ng/mL.

And the “hIL11 - average signal” value [3]?
The value was 1.23.

And the “mIL11 - average signal” value [4]?
The value was 1.18.
